# Patent publication US20190201496A1 (BRIGHAM AND WOMEN S HOSPITAL, published 2019)
# B1: human alpha-fetoprotein (AFP) (ligand)
# chain: RTLHRNEYGIASILDSYQCTAEISLADLATIFFAQFVQEATYKEVSKMVKDALTAIEKPTGDEQSSGCLENQLPAFLEELCHEKEILEKYGHSDCCSQSEEGRHNCFLAHKKPTPASIPLFQVPEPVTSCEAYEEDRETFMNKFIYEIARRHPFLYAPTILLWAARYDKIIPSCCKAENAVECFQTKAATVTKELRESSLLNQHACAVMKNFGTRTFQAITVTKLSQKFTKVNFTEIQKLVLDVAHVHEHCCRGDVLDCLQDGEKIMSYICSQQDTLSNKITECCKLTTLERGQCIIHAENDEKPEGLSPNLNRFLGDRDFNQFSSGEKNIFLASFVHEYSRRHPQLAVSVILRVAKGYQELLEKCFQTENPLECQDKGEEELQKYIQESQALAKRSCGLFQKLGEYYLQNAFLVAYTKKAPQLTSSELMAITRKMAATAATCCQLSEDKLLACGEGAADIIIGHLCIRHEMTPVNPGVGQCCTSSYANRRPCFSSLVVDETYVPPAFSDDKFIFHKDLCQAQGVALQTMKQEFLINLVKQKPQITEEQLEAVIADFSGLLEKCCQGQEQEVCFAEEGQKLISKTRAALGV
# notes: also called hAFP; human AFP
# Target: neonatal Fc receptor (FcRn) (UniProt P55899 24-297, limits assumed)
# Test: comparison of observed KD values; the assay for FcRn is not described here
# Chain of neonatal Fc receptor (FcRn) (P55899 24-297 limits assumed, form in doubt, chain 1 of 2): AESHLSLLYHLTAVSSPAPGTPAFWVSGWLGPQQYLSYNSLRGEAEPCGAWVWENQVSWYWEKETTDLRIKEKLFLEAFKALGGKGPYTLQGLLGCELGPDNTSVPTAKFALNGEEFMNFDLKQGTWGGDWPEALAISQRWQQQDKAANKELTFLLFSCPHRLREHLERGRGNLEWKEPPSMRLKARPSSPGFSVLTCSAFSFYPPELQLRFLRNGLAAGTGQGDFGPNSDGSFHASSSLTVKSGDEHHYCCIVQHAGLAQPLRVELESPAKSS
# Chain of neonatal Fc receptor (FcRn) (chain, as listed by the source limits assumed, form in doubt, chain 2 of 2): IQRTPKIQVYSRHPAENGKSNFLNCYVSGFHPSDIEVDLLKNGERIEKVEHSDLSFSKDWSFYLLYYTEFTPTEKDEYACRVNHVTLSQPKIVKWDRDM
binder,measurement,value
B1,fold higher affinity than AFP to β2M,100 fold
